Measurements: patent US8663616B2, “Enzymatic peracid generation for use in oral care products” (E I du Pont de Nemours and Company, priority 2010, dated 2014)
Each block holds one molecule with its values, some of them ahead of it.

Assays:
[1] = T. maritima C277S/C277T constructs, peracetic acid in solution (Example 11); assay type: biochemical; conditions: 0.5 μM enzyme, 100 mM triacetin, 100 mM H2O2, pH 7.2, 10 min, 37° C.; no enzyme 114
Protocol: (§1) The detection of peracetic acid followed the method described in Pinkernell et. al. (Analyst, 1997, 122, 567) using colorimetric detection of 2,2′-azino-bis(3-ethylbenzothiazoline(-6-sulfonate (ABTS) oxidation by peracetic acid. Following the formation of peracetic acid with the addition of triacetin and hydrogen peroxide, 90 μL of solution was added to 10 μL of 0.1 M H3PO4 in a well plate. 50 μL of 1 M acetic acid, 50 μL of 0.5 g/L ABTS and 50 μL of 0.002 g/L of KI was added. The solution was allowed to develop for 5 min. The absorbance of the solution was measured at 405 nm using a microplate reader. The peracetic acid concentration was calculated based on a standard curve developed simultaneously using peracetic acid reagent solution.
Perhydrolase enzymes listed in Table 5 were assessed for enzyme activity in solution as described in Example 7. The enzyme activity in solution was measured by making a 500 μl solution of 0.5 μM of each enzyme in 100 mM triacetin, 100 mM H2O2 and 10 mM phosphate buffer, pH 7.2. The solution was incubated for 10 min, at 37° C. After the reaction was stopped by mixing an aliquot with H3PO4, a 10 μL aliquot was removed for proper dilution, and then detected via ABTS oxidation as described in Example 7.

[2] = Peracetic acid generated after each round of two-step whitening, ABTS (Example 17); assay type: biochemical, bovine; conditions: for PAA (ppm) generated after each round of whitening, Rd2: round 2; for PAA (ppm) generated after each round of whitening, Rd3: round 3; for PAA (ppm) generated after each round of whitening, Rd4: round 4; for PAA (ppm) generated after each round of whitening, Rd5: round 5; for PAA (ppm) generated after each round of whitening, Rd1: step 1 enzyme or buffer, step 2 triacetin/H2O2, round 1
Protocol: The samples were diluted 1:100 with 100 mM phosphate buffer and added to ABTS detection reagent as noted in Example 8. Each sample data point represents 2 repeats of independent enamel blocks.

[3] = Retention of perhydrolase on hydroxyapatite (SDS-PAGE band strength); assay type: binding; conditions: for Unbound (relative band strength): 10 μM enzyme, 0.5% hydroxyapatite, pH 7.2; for Unbound (relative band strength) / HAP Particles (relative band strength) / Wash1 (relative band strength) / Wash2 (relative band strength): relative to enzyme input = 1; for HAP Particles (relative band strength): enzyme retained on particles after washes
Method in brief: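 Enzyme at 10 μM final was incubated 30 min with 0.5% hydroxyapatite nanoparticles in 10 mM phosphate pH 7.2, then centrifuged and washed three times. Input, wash supernatants and particles were run on SDS-PAGE with Coomassie-type staining; band strength scored relative to input (=1).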

[4] = Maximum peracetic acid by targeted and untargeted CE-7 perhydrolase with propylene glycol diacetate; assay type: biochemical; conditions: substrate propylene glycol diacetate; same reaction conditions as Table 20
Protocol: (§2) These ester substrates were tested for peracetic acid production using a targeted C277S perhydrolase variant, EZ-7 under the same reaction conditions used to generate date for Table 20. Peracetic acid production using propylene glycol diacetate or sucrose octaacetate with the EZ-7 perhydrolase system is shown in Table 21.

[5] = Perhydrolase activity in solution, ABTS detection of peracetic acid (Example 7); assay type: biochemical; conditions: 10 μL of 0.625 μg/mL enzyme, triacetin, H2O2, pH 7.2, 5 min
Protocol: as §1
The enzyme activity in solution was measured by making a solution of 0.625 μg/mL of each enzyme in 50 mM phosphate buffer, pH 7.2. 10 μL of enzyme solution was mixed with 90 μL buffer, 30 μL of 3% triacetin in water, 30 μL of 30 mM H2O2. The solution was incubated for 5 min. A 90 μL aliquot was removed for detection via ABTS oxidation as noted above.

[6] = Perhydrolase activity of enzyme bound to hydroxyapatite discs, ABTS (Example 7); assay type: biochemical; conditions: for Avg Absorbance Background subtract: background = no enzyme, no HAP (0.775); for Avg Absorbance at 5 min: discs incubated in 20 μM enzyme, 6 washes, 0.346% triacetin, 3.46 mM H2O2, A405; for PAA conc μM per disc: enzyme bound to hydroxyapatite disc, 5 min, no enzyme control 1.2
Protocol: as §1
The perhydrolase activity of the fusions once bound to HAP discs surfaces was determined with the same ABTS method. Hydroxyapatite discs (HiMed Inc, Old Bethpage, N.Y.; 5 mm dia.×1.8 mm thick) were incubated in 20 μM enzyme solution (50 mM potassium phosphate buffer pH 7.2) for 60 min followed by 6 times of washes (50 mM potassium phosphate buffer pH 7.2). The discs with enzyme adsorbed were transferred to new wells and 200 μL of phosphate buffer (10 mM pH 7.2), 30 μL of 3% triacetin (final concentration of 0.346%) and 30 μL of 30 mM H2O2 (final concentration of 3.46 mM) were added. The solution was allowed to incubate at room temperature for 5 min. 90 μL of solution was pipetted to a new well containing 10 μL of 100 mM H3PO4. 50 μL of acetic acid, 50 μL KI, 50 μL ABTS were added as described above. The solution was developed for 5 min at room temperature and read at A405 nm.

[7] = Two-step bleaching of coffee-tea stained bovine enamel, repeated rounds (Example 17); design: scale not given here; conditions: for Whiteness Index Rd1: after round 1 of the 2-step process; for Whiteness Index Rd2: after round 2; for Whiteness Index Rd3: after round 3; for Whiteness Index Rd4: after round 4; for Whiteness Index Rd5: after round 5; for ΔWI: before to round 5; for Whiteness Index Before: two-step: 20 μM enzyme (or buffer) 10 min 37° C., rinsed, then 100 mM triacetin, 100 mM H2O2 10 min 37° C., before treatment
Protocol: Bovine enamel incisors were prepared as indicated in Example 1. The stained enamel blocks were embedded in SILLY PUTTY® (Crayola LLC, Easton, Pa.) filled well, a 24-well plate to protect the dentin backside from solution exposure. A solution of 20 μM of each enzyme in 10 mM phosphate buffer, pH 7.2 was prepared and 500 μL of the enzyme solution was added to each enamel blocks and incubated for 10 min at 37° C. The enamel block was then rinsed three times with an additional 500 μL of buffer each time. The enamel blocks were transferred and embedded in a fresh putty well for the whitening process. A solution (200 μL) containing 100 mM phosphate buffer, 100 mM triacetin, 100 mM H2O2, pH 7.2 was added to the enamel and incubated for 10 min at 37° C. The enamel block was removed from the well using forceps, then rinsed and stored in a 1.5 mL of water filled well for color measurements. The 2-step process was repeated 5 times (50 min total). Each sample data point represents 2 repeats of independent enamel blocks.

[8] = Maximum peracetic acid by targeted and untargeted CE-7 perhydrolase with sucrose octaacetate; assay type: biochemical; conditions: substrate sucrose octaacetate; same reaction conditions as Table 20
Protocol: as §2

Unbound (relative band strength) [3]: 0.98
binding to / retention on hydroxyapatite (in words) ([3]; after washes): does not bind to hydroxyapatite
HAP Particles (relative band strength) [3]: 0.01
Wash1 (relative band strength) [3]: 0.01
Wash2 (relative band strength) [3]: 0.0
Maximum Peracetic Acid (ppm), Propylene glycol diacetate [4]: 2165 ppm
Maximum Peracetic Acid (ppm), Sucrose octaacetate [8]: 2768 ppm
B1: EZ-1: Thermotoga maritima acetyl xylan esterase variant C277S, untargeted perhydrolase, SEQ ID NO: 424 (protein, listed as Thermotoga maritima)
chain: MAFFDLPLEELKKYRPERYEEKDFDEFWEETLAESEKFPLDPVFERMESHLKTVEAYDVTFSGYRGQRIKGWLLVPKLEEEKLPCVVQYIGYNGGRGFPHDWLFWPSMGYICFVMDTRGQGSGWLKGDTPDYPEGPVDPQYPGFMTRGILDPRTYYYRRVFTDAVRAVEAAASFPQVDQERIVIAGGSQGGGIALAVSALSKKAKALLCDVPFLCHFRRAVQLVDTHPYAEITNFLKTHRDKEEIVFRTLSYFDGVNFAARAKIPALFSVGLMDNISPPSTVFAAYNYYAGPKEIRIYPYNNHEGGGSFQAVEQVKFLKKLFEKG
Peracetic acid (ppm) In Solution [1]: 4270 ppm
PAA (ppm) generated after each round of whitening, Rd2 [2]: 41.0 ppm
PAA (ppm) generated after each round of whitening, Rd3 [2]: 30.2 ppm
PAA (ppm) generated after each round of whitening, Rd4 [2]: 39.3 ppm
PAA (ppm) generated after each round of whitening, Rd5 [2]: 47.1 ppm
PAA (ppm) generated after each round of whitening, Rd1 [2]: 33.2 ppm
Avg Absorbance 405 nm Background subtracted [5]: 1.830
Avg Absorbance Background subtract [6]: 0.126
Avg Absorbance at 5 min [6]: 0.901
PAA conc μM per disc [6]: 3.5 μM per disc
Whiteness Index Rd1 [7]: −129.5
Whiteness Index Rd2 [7]: −129.5
Whiteness Index Rd3 [7]: −129.2
Whiteness Index Rd4 [7]: −125.1
Whiteness Index Rd5 [7]: −122.1
ΔWI [7]: 17.9
Whiteness Index Before [7]: −140.0

Unbound (relative band strength) [3]: 0.5
HAP Particles (relative band strength) [3]: 0.5
Wash1 (relative band strength) [3]: 0.01
Wash2 (relative band strength) [3]: 0.0
Maximum Peracetic Acid (ppm), Propylene glycol diacetate [4]: 2109 ppm
Maximum Peracetic Acid (ppm), Sucrose octaacetate [8]: 2070 ppm
B2: EZ-7: C277S-link1-DenP308-H6, SEQ ID NO: 429 (protein)
chain: MAFFDLPLEELKKYRPERYEEKDFDEFWEETLAESEKFPLDPVFERMESHLKTVEAYDVTFSGYRGQRIKGWLLVPKLEEEKLPCVVQYIGYNGGRGFPHDWLFWPSMGYICFVMDTRGQGSGWLKGDTPDYPEGPVDPQYPGFMTRGILDPRTYYYRRVFTDAVRAVEAAASFPQVDQERIVIAGGSQGGGIALAVSALSKKAKALLCDVPFLCHFRRAVQLVDTHPYAEITNFLKTHRDKEEIVFRTLSYFDGVNFAARAKIPALFSVGLMDNISPPSTVFAAYNYYAGPKEIRIYPYNNHEGGGSFQAVEQVKFLKKLFEKGGPGSGGAGSPGSAGGPGSTKPPRTPTANTSRPHHNFGSGGGGSPHHHHHH
Peracetic acid (ppm) In Solution [1]: 5519 ppm
PAA (ppm) generated after each round of whitening, Rd2 [2]: 496.7 ppm
PAA (ppm) generated after each round of whitening, Rd3 [2]: 716.5 ppm
PAA (ppm) generated after each round of whitening, Rd4 [2]: 998.5 ppm
PAA (ppm) generated after each round of whitening, Rd5 [2]: 1224.5 ppm
PAA (ppm) generated after each round of whitening, Rd1 [2]: 383.5 ppm
Avg Absorbance 405 nm Background subtracted [5]: 1.619
Avg Absorbance Background subtract [6]: 1.450
Avg Absorbance at 5 min [6]: 1.45
PAA conc μM per disc [6]: 23.5 μM per disc
activity when bound to hydroxyapatite (in words) ([6]; with addition of triacetin and hydrogen peroxide): active enzymes when bound to hydroxyapatite
Whiteness Index Rd1 [7]: −106.7
Whiteness Index Rd2 [7]: −96.0
Whiteness Index Rd3 [7]: −88.7
Whiteness Index Rd4 [7]: −85.7
Whiteness Index Rd5 [7]: −76.6
ΔWI [7]: 44.2
Whiteness Index Before [7]: −120.8
